Results: patent US20200030378A1

B1: w830 clonotype 3 TCR (TCR)
TCR alpha: CAYPSTDKLIF
TCR beta: CASSILGASNQPQHF
B2: w876 clonotype 8 TCR (TCR)
TCR alpha: CVVYASKIIF
TCR beta: CASSDTPDLNTEAFF
B3: w876 clonotype 14 TCR (TCR)
TCR alpha: CVVPSAGKSTF
TCR beta: CASSEFAGQETQYF
B4: w876 clonotype 13 TCR (TCR)
TCR alpha: CVVTDTSGGGADGLTF
TCR beta: CASSLAGLAGTDTQYF

Target: MCPyV KLL epitope presented by HLA-A*02:01 on cells (human; Merkel cell polyomavirus), A*02:0
Assay: cell-based or functional assay

B1 was tested. Which EC50 (ng/uL DNA), IFN-γ secretion, COS-7 + HLA-A*02:01 + tLTAg plasmid did it give?
Its EC50 (ng/uL DNA), IFN-γ secretion, COS-7 + HLA-A*02:01 + tLTAg plasmid is 270 ng/µL DNA.

With B2 as the binder, how does the EC50 (ng/uL DNA), IFN-γ secretion, COS-7 + HLA-A*02:01 + tLTAg plasmid read?
The EC50 (ng/uL DNA), IFN-γ secretion, COS-7 + HLA-A*02:01 + tLTAg plasmid was 4.2 ng/µL DNA.

B3 was tested. Which EC50 (ng/uL DNA), IFN-γ secretion, COS-7 + HLA-A*02:01 + tLTAg plasmid did it give?
The EC50 (ng/uL DNA), IFN-γ secretion, COS-7 + HLA-A*02:01 + tLTAg plasmid was 5.4 ng/µL DNA.

How did the EC50 (ng/uL DNA), IFN-γ secretion, COS-7 + HLA-A*02:01 + tLTAg plasmid turn out when B4 was run?
The EC50 (ng/uL DNA), IFN-γ secretion, COS-7 + HLA-A*02:01 + tLTAg plasmid was 3.9 ng/µL DNA.
